Source: patent US20080213277A1
Substitutions are numbered along the chain they refer to. Each block holds one binder with its values, some of them ahead of it.

Columns and labels:
[1] = target: linear hepcidin variant (human); experiment: BIAcore: 1 nM antibody preincubated with 10 nM of this hepcidin form in solution, then run over immobilized rhHepc surface; % = free antibody still binding the surface (low % = strong binding to the solution form)
[2] = target: C1-C8, C3-C6 hepcidin variant (human); experiment: as above

B1: murine anti-human hepcidin monoclonal antibody 2.41 (antibody, V domains shown)
VH: QIQLVQSGPELKKPGETVKISCKASGYTFTTYGMSWVKQAPGKGLKWMGWINTSSGVPTYADDFMGRFAFSLETSASTAYLQINNLKNEDTATYFCARDRYYGEVAYWGQGTLVTVSA
VL: DIVLTQSPASLAVSLGQRATISCRASESVDSFGNSFMHWYQLKPGQPPKLLIYRASNLESGIPARFSGSGSRTDFTLTINPVEADDVAIYYCQQSNEEYTFGGGTKLEIK
Binding to Hepcidin Surface (%) [1]: 99%
Binding to Hepcidin Surface (%) [2]: 1%

B3: murine anti-human hepcidin monoclonal antibody 2.7 (antibody, V domains shown)
VH: B1 VH with S54Y, M65K, A97G, R100H
VL: B1 VL with F32Y, L42Q, I89T, Q93H
Binding to Hepcidin Surface (%) [1]: 100%
Binding to Hepcidin Surface (%) [2]: 3%

Results, then the binder that gave them:

Binding to Hepcidin Surface (%) [1]: 100%
Binding to Hepcidin Surface (%) [2]: 25%
B2: murine anti-human hepcidin monoclonal antibody Ab43 (antibody, V domains shown)
VH: QIQLVQSGPELKKPGETVKISCKASGYTFTTYGMSWVKQAPGKGLKWMGWINTYSGVPTYADDFKGRFAFSLETSASTAYLQINNLKNEDTATYFCASLWYYGRAFDYWGQGTTLTVSS
VL: NIVLTQSPASLAVSLGQRATISCRASESVDSYGNSFMHWYQQKPGQPPKLLIYLASNLESGVPARFSGSGSRTDFTLTIDPVEADDAATYYCQQNNEDRTFGGGTKLEIK

Binding to Hepcidin Surface (%) [1]: 100%
Binding to Hepcidin Surface (%) [2]: 63%
B4: rat anti-human hepcidin monoclonal antibody R9 (antibody, V domains shown)
VH: QVTLKESGPGILQPSQTLSLTCSFSGFSLSTSGICVSWIRQPSGKGLEWLATICWEDSKGYNPSLKNRLTISKDTSNNQAFLKITSVDTADTAIYYCARPLNYGGYSELELDYWGQGVMVTVSS
VL: DIQMTQSPSLLSASVGDRVTLSCKASQNIYKYLNWYQQKLGEAPKLLIYYTNSLQTGIPSRFSGSGSGTDFTLTISSLQPEDVATYYCYQYNSGPTFGAGTKLELK
